In US12702697B2, “Compositions and methods for treatment of headache disorders and neuropathic pain” (Washington University, priority 2019, dated 2026):

Tests used:
[1] = test system: SNI-induced punctate and dynamic allodynia in mice; assay: Mouse model of spared nerve injury (SNI): punctate (von Frey) and dynamic (brush) allodynia; assay type: in vivo
Description: Mouse model of SNI. Mice were anesthetized with 3-4% isoflurane in an induction chamber until losing the righting reflex. Anesthesia was maintained by 1.5-2% isoflurane through a nose cone. After skin and muscle incision to expose the right sciatic nerve in the thigh region, we tightly ligated two branches (sural and common peroneal nerves) with 7-0 silk suture (Braintree Scientific, Braintree, MA) and transected ~2 mm of the nerve distal to the ligature. The third branch of the sciatic nerve (tibial nerve) was left intact, and caution was taken not to stretch or contact the spared nerve. In sham mice the right sciatic nerve and its branches were exposed but were not touched. After the surgery, the overlying muscle and skin layers were closed separately with 6-0 vicryl suture and interrupted nylon suture for the skin incision, respectively.
Response to punctate mechanical stimuli on the hindpaw. Mice were habituated in individual clear plexiglass boxes (11×11×15 cm) for 1-2 hours. A series of calibrated von Frey filaments were used to apply mechanical stimuli to the medial plantar surface of the hindpaw (the tibial nerve territory). We used the up-down paradigm to determine the 50% withdrawal threshold.
Response to dynamic mechanical stimuli on the hindpaw. Mice were habituated in individual clear plexiglass boxes (11×11×15 cm) for 1-2 hours. The medial plantar surface of the hindpaw (tibial nerve territory) was stimulated by light stroking with a blunt paintbrush (5/0, Princeton Art & Brush Co., Princeton, NJ) from heel to toe at ~2 cm/second. The behavior was scored as described previously. Score 0 indicates no evoked movement or lifting the stimulated paw for less than 1 second. Score 1 indicates a sustained lifting (more than 2 seconds) of the stimulated paw toward the body or a single gentle flinching of the stimulated paw. Score 2 indicates a strong lateral lift of the stimulated paw above the level of the body or a startle-like jump. Score 3 indicates multiple flinching or licking of the stimulated paw. Each paw was tested 3 times, with minimal interval of 3 minutes. The scores of 3 tests were averaged to indicate the response to dynamic mechanical stimuli.
Ld-IL2 treatment. Recombinant mouse IL2 (carrier-free, Biolegend, San Diego, CA) was freshly diluted from the stock (0.5-1 mg/ml aliquots at −80° C.) every day. Each mouse received daily intraperitoneal (i.p.) injection of 1 μg IL2 in 100 μl saline at various durations. The control mice received daily i.p. injections of 100 μl saline. Note that on the days that the mouse behaviors were tested, IL2 was always injected after completing the behavioral tests. […]

[2] = test system: mTBI-induced memory deficit in mice; assay: Novel object recognition (NOR) assay after mTBI; assay type: in vivo, mouse; settings: ld-IL2 between day 6 and 12 post-mTBI
Description: The novel object recognition (NOR) assay was used to test the effect of mTBI and ld-IL2 treatment on cognition. On the training day, mice were allowed to explore two identical objects in an arena for 10 minutes. The next day, mice were allowed to explore the same space in the presence of the familiar object and a novel object to test long-term recognition memory. […] After mTBI, mice spent similar amounts of time exploring the familiar and the novel object, indicating a deficit in recognition memory (FIG. 12, mTBI+saline). […] Remarkably, the effect of ld-IL2 on memory deficit lasted for at least 20 days after the cessation of treatment.

[3] = test system: Treg cells and CD3+ T cells in dura, TG and DRG; assay: Immunohistochemistry of CD3+ T cells and EGFP+ Treg cells in dura, TG, DRG and cervical/medullary dorsal horn; assay type: in vivo, mouse
Description: Tissue preparation, immunohistochemistry, and image analysis. Mice were euthanized with i.p. injection of barbiturate (200 mg/kg) and were transcardially perfused with warm 0.1 M phosphate buffered saline (pH 7.2) followed by cold 4% formaldehyde in 0.1 M phosphate buffer (pH 7.2) for fixation. Trigeminal ganglia, lumbar L4 DRG, and the tissues containing the cervical/medullary dorsal horn (from obex to C3 cervical spinal cord) were collected and sectioned at […] in the transverse plane, collected on Superfrost Plus glass slides in sequence and stored at […]
The dura was carefully dissected from the skull using forceps and stained as whole mount. T cells were identified by the rat anti-CD3 antibody (clone 17A2, 1:200; eBioscience, San Diego, CA), and Treg cells were identified with the chicken anti-EGFP (1:1000; AVES Lab, Tigard, OR) antibody in tissues from DEREG mice. […] To quantify CD31 T cells and Treg cells on the dura, we took random, nonoverlapping images (10 per mouse) in areas adjacent to the middle meningeal artery (MMA). To quantify T cells and Treg cells in TG, DRG, and cervical/medullary dorsal horn, all cells on individual sections were counted, and the number was multiplied by 4 to obtain the total number of cells per ganglion in each mouse. […] Representative images were adjusted for contrast and brightness using the same parameter within individual experiments. No other manipulations were made to the images. Image analysis was performed with experimenters blinded to the experimental groups.

[4] = test system: IFNγ secretion by splenocytes; assay: IFNγ ELISA and ELISPOT of CD3/CD28-stimulated splenocytes; assay type: cell-based, mouse
Description: To quantify interferon g (IFNγ) secretion, splenocytes were plated in 24-well plates (5 3 106 per well) and stimulated with antiCD3 and anti-CD28 antibodies ([…]) in 1 mL complete RPMI1640 media overnight. IFNγ in the supernatants were quantified by ELISA (430901; Biolegend).
ELISPOT assay was performed to determine the number of INFg-secreting cells. Splenocytes were plated at 5×10^4 cells per well and incubated overnight with RPMI1640 media containing anti-CD3 and anti-CD28 antibodies ([…]) for stimulation. IFNg was detected using a colorimetric reagent kit (R&D SEL485 and SEL002). Following development, images were captured and analyzed on the ImmunoSpot7.0 plate reader (Cellular Technologies, Kennesaw, GA).

[5] = 15 days of ld-IL2, male DEREG mice

B1: ld-IL2: Recombinant mouse IL2 (carrier-free; Biolegend), given as daily low-dose i.p. injection (protein, UniProt P04351 21-169, looked up)
Interleukin-2: APTSSSTSSSTAEAQQQQQQQQQQQQHLEQLLMDLQELLSRMENYRNLKLPRMLTFKFYLPKQATELKDLQCLEDELGPLRHVLDLTQSKSFQLEDAENFISNIRVTVVKLKGSDNTFECQFDDESATVVDFLRRWIAFCQSIISTSPQ
In the case of B1, the “days of ld-IL2 treatment after which the mechanical threshold started to reverse” value ([1]; 3-week ld-IL2 started 7 days post-SNI, ipsilateral paw) is reported as 3 days, the “basal punctate and dynamic mechanical sensitivity” value ([1]; 5 days of ld-IL2 injections before SNI, female Swiss Webster) is reported as “not altered” and the “mechanical threshold of SNI+IL2 versus sham+IL2 group” value ([1]; after 7 days of IL2 treatment (day 14-28)) is reported as “not different”. For the same molecule, the dynamic allodynia ([1]; after 7 days of IL2 treatment (day 15-29)) was “completely reversed”, the “integrated AOC of withdrawal threshold between day 10 and 28 post-SNI versus SNI+saline” value ([1]; delayed ld-IL2) was “significantly lower” and the “integrated AOC of dynamic allodynia score versus SNI+saline” value ([1]; delayed ld-IL2, between day 10 and 28 post-SNI) was “significantly lower”. The “responses to brush stimuli of the contralateral paw and of sham mice” value ([1]; ld-IL2) was “did not change”, the “SNI-caused reduction of the withdrawal threshold” value ([1]; ld-IL2 1 μg/mouse/day i.p. from 5 days before to 21 days post-SNI (saline: threshold about 20% of baseline)) was 50% and the “mechanical threshold of the contralateral (left) paw” value ([1]; ld-IL2, SNI mice) was “did not change”. For the same molecule, the “development of hyper-sensitivity to brush stimuli (dynamic allodynia)” value ([1]; ld-IL2 pretreatment) was “prevents the development”, the “magnitude of punctate allodynia (AOC day 0 to day 22 post-SNI)” value ([1]; ld-IL2 pretreatment) was “significantly attenuated” and the “duration of the effect on memory deficit after cessation of treatment” value [2] was “at least 20 days”. For the same molecule, the “novel object recognition deficit after mTBI” value [2] was “did not exhibit NOR deficit”, the “frequency of Treg cells among CD3+ cells in the dura” value ([3]; 15 days of ld-IL2 (5% without)) was 20% and the “increase of the number of EGFP+ Treg cells in the TG” value ([3]; 15 days of ld-IL2, female DEREG mice) was 9 fold. For the same molecule, the “increase in the density of EGFP+ Treg cells in the dura surrounding the MMA” value [3, 5] was 4 fold, the “increase in the number of EGFP+ Treg cells in DRG” value [3, 5] was 4 fold and the “amount of CD3/CD28 stimulation-induced IFNγ secretion” value ([4]; ELISA, cells from IL-2-treated mice) was “significantly reduced”. For the same molecule, the “number of splenocytes secreting IFNγ” value ([4]; ELISPOT, 15 days of ld-IL2) was “not altered”.
